Laboratory results published in PMC12570964 (Nature Microbiology, 2025).

Target: T1, mouse IFIT3 (M. musculus Ifit3, co-expressed with Ifit2 in E. coli) (M. musculus, UniProt Q64345 8-389)
T1 construct: also called interferon-induced protein with tetratricopeptide repeats 3
T1 sequence: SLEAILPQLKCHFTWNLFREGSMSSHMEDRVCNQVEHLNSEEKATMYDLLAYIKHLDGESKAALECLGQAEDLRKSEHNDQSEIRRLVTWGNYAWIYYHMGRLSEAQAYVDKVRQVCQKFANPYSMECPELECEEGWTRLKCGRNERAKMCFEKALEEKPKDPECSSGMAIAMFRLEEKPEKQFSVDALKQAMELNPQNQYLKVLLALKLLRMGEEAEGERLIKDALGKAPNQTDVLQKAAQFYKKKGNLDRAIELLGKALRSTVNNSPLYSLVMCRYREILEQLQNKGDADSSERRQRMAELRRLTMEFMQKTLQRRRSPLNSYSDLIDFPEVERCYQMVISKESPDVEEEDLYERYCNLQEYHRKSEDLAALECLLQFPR
Assay: cryo-EM structure
Details: both partners purified

B1: mouse IFIT2 (M. musculus Ifit2, co-expressed with Ifit3 in E. coli) (natural protein, UniProt Q64112 1-472, looked up)
chain: MSTTSKESLVCNLRQLKCHFTWNLIAEDESLDEFEDRVFNKDEFQNSEFKATMCNILAYVKHCRGLNEAALQCLGEAEGFIQQQHPDQVEIRSLVTWGNYAWVYYHMGQFSKAQAYLDKVKQVCKKFSSPYRIENPALDCEEGWARLKCTKNQNERVKVCFQKALEKDPKNPEFTSGWAIAFYRLDDWPARNYCIDSLEQAIQLSPDNTYVKVLLALKLDAVHVHKNQAMALVEEALKKDPSAIDTLLRAARFYCKVYDTDRAIQLLRKALEKLPNNAYVHYYMGCCYRSKVHHMLNRREMVFSGDRKKLEELIQLAVNHLRKAEEIKEMLEYSCSFLADLYIIAKKYDEADYYFQKELSKDLPPGPKQLLHLRYGNFQFFQMKRQDKAIYHYMEGVKIKKKTIPQKKMREKLQRIALRRLHEDESDSEALHILAFLQENGGGQQADKDSERGVDSANQVPSASLDEDGAEY
notes: also called interferon-induced protein with tetratricopeptide repeats 2; source: E. coli Rosetta pLysS, co-expressed with Ifit3, purified (nickel column, TEV cleavage, Superdex 200 size exclusion)
Q: Which “stoichiometry N” value does the source give for B1 here?
A: 1
